Source: article PMC3351156 (Nucleic Acids Research, 2012)
Changes are numbered by the printed parent chain. Where two headings read alike, the source gives them in different places. Blank lines part the entries; values can stand above or below the molecule they belong to. Non-standard residues stand in square brackets, D forms with d. No end group written: not given here. pT = C[C@@H](OP(=O)(O)O)[C@H](N)C(=O)O

T1: SMT3-MDC1^2–133-T98A (UniProt Q14676 2-133, T98A)
T1 sequence (looked up): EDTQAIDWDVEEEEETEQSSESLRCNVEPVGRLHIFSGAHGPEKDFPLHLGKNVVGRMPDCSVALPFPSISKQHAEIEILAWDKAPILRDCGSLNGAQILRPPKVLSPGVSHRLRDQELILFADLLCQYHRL

B1: MDC1^27–138 (MDC1 FHA domain, residues 27–138) (domain or fragment, UniProt Q14676 27-138, looked up)
chain: NVEPVGRLHIFSGAHGPEKDFPLHLGKNVVGRMPDCSVALPFPSISKQHAEIEILAWDKAPILRDCGSLNGTQILRPPKVLSPGVSHRLRDQELILFADLLCQYHRLDVSLP
B2: pT4-MDC1^2–133 (T4-phosphorylated MDC1^2–133) (domain or fragment, UniProt Q14676 2-133, looked up)
chain: T1 sequence (looked up) with A97T
modifications: phosphothreonine at 4
B3: pT4-MDC1^2–133-R58A (domain or fragment, UniProt Q14676 2-133, looked up)
chain: T1 sequence (looked up) with R57A, A97T
modifications: phosphothreonine at 4
B4: MDC1^2–133 (unphosphorylated) (domain or fragment, UniProt Q14676 2-133, looked up)
chain: T1 sequence (looked up) with A97T
B5: phosphopeptide MED(pT)QAID (pT4-8P) (peptide)
peptide: MED[pT]QAID
B6: FHA domain of Xenopus tropicalis MDC1 (domain or fragment)
chain: NIIGRHTNCDVTLPAQSVSKKHAIIEVEADCHTLCDQGSLNKTRRGKAAI

How the values were obtained:
[1] = biological target: Mutator 2 FHA domain (Drosophila melanogaster) (Drosophila melanogaster)
SEC [2] = biological target: the molecule itself; assay: SEC
AUC [3] = biological target: the molecule itself; assay: AUC
SEC [4] = biological target: the molecule itself; assay: SEC; remark: listed apart in the source
AUC [5] = biological target: the molecule itself; assay: AUC; remark: listed apart in the source
SMT3-MDC1^2–133-T98A = biological target: T1, SMT3-MDC1^2–133-T98A; assay: ITC
[6] = biological target: B1; assay: ITC
[7] = biological target: B4; assay: AUC
SEC [8] = biological target: the molecule itself; assay: SEC; remark: listed apart in the source

stoichiometry N [1]: 2
Molecule: Mutator 2 FHA domain (Drosophila melanogaster) (domain or fragment)

Molecule: B1
stoichiometry N (SEC [2]): 2

Molecule: B2
Kd (AUC [3]): 0.035 µM

Molecule: B3
binding result (SEC [4]): binds

Molecule: B4
Kd (AUC [3]): 9.2 µM | Kd (AUC [5]): 16 µM

Molecule: B5
fold reduction of binding affinity against SMT3-MDC1^2–133 (SMT3-MDC1^2–133-T98A): 7 fold | Kd [6]: 40 ± 3 µM | Kd [7]: 20 µM

Molecule: B6
stoichiometry N (SEC [8]): 2
